According to article PMC4465127 (2015):

Molecular target: T1, LIN-3 EGF domain EGF (Caenorhabditis elegans, UniProt Q03345)
T1 chain: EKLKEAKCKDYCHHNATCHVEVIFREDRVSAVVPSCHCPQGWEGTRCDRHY

Kd: ~3000 nM
B1: sLET-23 ECD (protein)
chain: FGNSNAQLWKRCVSPQDCLCSGTTNGISRYGTGNILEDLETMYRGCRRVYGNLEITWIEANEIKKWRESTNSTVDPKNEDSPLKSINFFDNLEEIRGSLIIYRANIQKISFPRLRVIYGDEVFHDNALYIHKNDKVHEVVMRELRVIRNGSVTIQDNPKMCYIGDKIDWKELLYDPDVQKVETTNSHQHCYQNGKSMAKCHESCNDKCWGSGDNDCQRVYRSVCPKSCSQCFYSNSTSSYECCDSACLGGCTGHGPKNCIACSKYELDGICIETCPSRKIFNHKTGRLVFNPDGRYQNGNHCVKECPPELLIENDVCVRHCSDGHHYDATKDVRECEKCRSSSCPKICTVDGHLTNETLKNLEGCEQIDGHLIIEHAFTYEQLKVLETVKIVSEYITIVQQNFYDLKFLKNLQIIEGRKLHNVRWALAIYQCDDLEELSLNSLKLIKTGAVLIMKNHRLCYVSKIDWSSIITSKGKDNKPSLAIAENRDSKLCETEQRVCDKNCNKRGCWGKEPEDCLECKTWKSVGTCVEKCDTKGFLRNQTSMKCERCSPECETCNGLGELDCLTCRHKTLYNSDFGNRMECVHDCPVSHFPTQKNVCEKCHPTCYDNGCTGPDSNLGYGGCKQCKYAVKYENDTIFCLQSSGMNNVCVENDLPNYYISTYDTEGVIETHCEKCSISCKTCSSAGRNVVQNKCVCKHVEYQPNPSERICMDQCPVNSFMVPDTNNTVCKKCHHECDQNYHCANGQSTGCQKCKNFTVFKGDIAQCVSECPKNLPFSNPANGECLDYDIASRQRKTR
